Test results reported in article PMC9233744.
No end group written: not given here.

B1: FITC-labeled SHP144 I20A (peptide)
peptide: SEWVIVAPFLTNL
modifications: also: FITC label, position not given here
B2: FITC-labeled SHP144 P21A (peptide)
peptide: SEWVIVIAFLTNL
modifications: also: FITC label, position not given here
B3: FITC-labeled SHP144 F22A (peptide)
peptide: SEWVIVIPALTNL
modifications: also: FITC label, position not given here
B4: FITC-labeled SHP144 L23A (peptide)
peptide: SEWVIVIPFATNL
modifications: also: FITC label, position not given here
B5: FITC-labeled SHP144 T24A (peptide)
peptide: SEWVIVIPFLANL
modifications: also: FITC label, position not given here
B6: FITC-labeled SHP144 N25A (peptide)
peptide: SEWVIVIPFLTAL
modifications: also: FITC label, position not given here
B7: FITC-labeled SHP144 L26A (peptide)
peptide: SEWVIVIPFLTNA
modifications: also: FITC label, position not given here
B8: unlabeled SHP144 (13-residue synthetic peptide, wild type) (peptide)
peptide: SEWVIVIPFLTNL
B9: FITC-labeled SHP144 (SHP144-C13), wild type (peptide)
peptide: SEWVIVIPFLTNL
modifications: also: FITC label, position not given here
B10: FITC-labeled SHP144 S14A (peptide)
peptide: AEWVIVIPFLTNL
modifications: also: FITC label, position not given here
B11: FITC-labeled SHP144 E15A (peptide)
peptide: SAWVIVIPFLTNL
modifications: also: FITC label, position not given here
B12: FITC-labeled SHP144 W16A (peptide)
peptide: SEAVIVIPFLTNL
modifications: also: FITC label, position not given here
B13: FITC-labeled SHP144 V17A (peptide)
peptide: SEWAIVIPFLTNL
modifications: also: FITC label, position not given here
B14: FITC-labeled SHP144 I18A (peptide)
peptide: SEWVAVIPFLTNL
modifications: also: FITC label, position not given here
B15: FITC-labeled SHP144 V19A (peptide)
peptide: SEWVIAIPFLTNL
modifications: also: FITC label, position not given here

molecular target: Rgg144 (recombinant, Streptococcus pneumoniae D39, SPD_0144) (Streptococcus pneumoniae D39); assay: fluorescence polarisation

Question: Which Kd does the source give for B1 here?
Answer: 23.5 µM

Question: For B2, which Kd is on record?
Answer: 1.7 µM

Question: B3 was tested. Which Kd did it give?
Answer: 7.1 µM

Question: B4 was tested. Which Kd did it give?
Answer: 4.3 µM

Question: Which Kd does the source give for B5 here?
Answer: 3.3 µM

Question: With B6 as the molecule, how does the Kd read?
Answer: 3.3 µM

Question: Which Kd does the source give for B7 here?
Answer: 3.4 µM

Question: With B8 as the molecule, how does the IC50 read?
Answer: 86.8 µM

Question: With B9 as the molecule, how does the Kd read?
Answer: 6.6 µM

Question: How did the Kd turn out when B10 was run?
Answer: 8.1 µM

Question: Which Kd does the source give for B11 here?
Answer: 3.3 µM

Question: Which Kd does the source give for B12 here?
Answer: 50 µM

Question: Which Kd does the source give for B13 here?
Answer: 9.7 µM

Question: For B14, which Kd is on record?
Answer: > 100 µM

Question: B15 was tested. Which Kd did it give?
Answer: 4 µM

molecular target: Rgg144 (recombinant, Streptococcus pneumoniae D39, SPD_0144) (Streptococcus pneumoniae D39); assay: SEC

Question: Which stoichiometry N does the source give for “Rgg144 (recombinant, Streptococcus pneumoniae D39, SPD_0144) (natural protein)” here?
Answer: 2
